From patent US20090305953A1
“And” between values parts separate entries of the source, which are not always exact repeats. Identical values can stand only once.

How the values were obtained:
[1] = biological target: N,N′-diacetyl-Lys-D-Ala-D-Ala; assay: ITC, no HSA
[2] = biological target: bovine albumin (bovine) (UniProt P02769); assay: ITC, single-site model
[3] = biological target: dog albumin (dog) (UniProt P49822); assay: ITC, single-site model
[4] = biological target: human α-glycoprotein (human) (UniProt P02763); assay: ITC, single-site model
Chain of human α-glycoprotein (human) (P02763 19-201): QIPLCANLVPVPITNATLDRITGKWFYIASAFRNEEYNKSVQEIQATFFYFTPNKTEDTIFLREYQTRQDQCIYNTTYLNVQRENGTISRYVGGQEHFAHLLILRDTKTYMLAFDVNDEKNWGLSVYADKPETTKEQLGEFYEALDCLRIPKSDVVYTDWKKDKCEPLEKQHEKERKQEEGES

[5] = biological target: rat albumin (rat) (UniProt P02770); assay: ITC, single-site model
Chain of rat albumin (rat) (P02770 25-608 limits assumed): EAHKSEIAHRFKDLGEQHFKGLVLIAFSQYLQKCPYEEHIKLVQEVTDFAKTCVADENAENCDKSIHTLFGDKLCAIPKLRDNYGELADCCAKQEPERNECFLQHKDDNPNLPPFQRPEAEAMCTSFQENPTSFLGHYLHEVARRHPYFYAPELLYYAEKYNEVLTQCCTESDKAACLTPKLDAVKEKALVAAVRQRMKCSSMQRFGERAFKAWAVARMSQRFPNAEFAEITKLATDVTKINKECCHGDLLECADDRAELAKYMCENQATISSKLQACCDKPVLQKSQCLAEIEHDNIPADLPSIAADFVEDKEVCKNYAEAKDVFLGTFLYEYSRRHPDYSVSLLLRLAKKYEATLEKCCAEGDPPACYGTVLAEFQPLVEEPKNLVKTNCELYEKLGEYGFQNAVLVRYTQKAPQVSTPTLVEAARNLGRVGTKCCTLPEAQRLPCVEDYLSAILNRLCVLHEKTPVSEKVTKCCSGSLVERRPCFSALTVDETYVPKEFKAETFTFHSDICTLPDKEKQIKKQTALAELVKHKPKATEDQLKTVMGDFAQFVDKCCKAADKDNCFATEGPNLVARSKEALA

[6] = biological target: N,N′-diacetyl-Lys-D-Ala-D-Ala; assay: ITC, tri-peptide injected into dalbavancin, 10 °C, no HSA
[7] = biological target: human α-glycoprotein (human) (UniProt P02763); assay: calculated from ITC Ka; 1 µM antibiotic, 1.5×10^-5 M α-glycoprotein assumed
[8] = biological target: human α-glycoprotein (human) (UniProt P02763); assay: calculated from ITC Ka; 10 µM antibiotic, 1.5×10^-5 M α-glycoprotein assumed
[9] = biological target: human α-glycoprotein (human) (UniProt P02763); assay: calculated from ITC Ka; 100 µM antibiotic, 1.5×10^-5 M α-glycoprotein assumed
[10] = biological target: human α-glycoprotein (human) (UniProt P02763); assay: calculated from ITC Ka; 165 µM antibiotic, 1.5×10^-5 M α-glycoprotein assumed
[11] = biological target: human α-glycoprotein (human) (UniProt P02763); assay: calculated from ITC Ka; 250 µM antibiotic, 1.5×10^-5 M α-glycoprotein assumed
[12] = biological target: human α-glycoprotein (human) (UniProt P02763); assay: calculated from ITC Ka; 500 µM antibiotic, 1.5×10^-5 M α-glycoprotein assumed
[13] = biological target: human serum albumin (human) (UniProt P02768); assay: calculated from ITC Ka; 1 µM antibiotic, 6×10^-4 M human serum albumin assumed
[14] = biological target: human serum albumin (human) (UniProt P02768); assay: calculated from ITC Ka; 10 µM antibiotic, 6×10^-4 M human serum albumin assumed
[15] = biological target: human serum albumin (human) (UniProt P02768); assay: calculated from ITC Ka; 100 µM antibiotic, 6×10^-4 M human serum albumin assumed
[16] = biological target: human serum albumin (human) (UniProt P02768); assay: calculated from ITC Ka; 165 µM antibiotic, 6×10^-4 M human serum albumin assumed
[17] = biological target: human serum albumin (human) (UniProt P02768); assay: calculated from ITC Ka; 250 µM antibiotic, 6×10^-4 M human serum albumin assumed
[18] = biological target: human serum albumin (human) (UniProt P02768); assay: calculated from ITC Ka; 500 µM antibiotic, 6×10^-4 M human serum albumin assumed
[19] = biological target: N,N′-diacetyl-Lys-D-Ala-D-Ala; assay: ITC, tri-peptide injected into dalbavancin, 25 °C, apparent value in the presence of 13.6 µM HSA
[20] = biological target: N,N′-diacetyl-Lys-D-Ala-D-Ala; assay: ITC, tri-peptide injected into dalbavancin, 25 °C, apparent value in the presence of 34.2 µM HSA
[21] = biological target: N,N′-diacetyl-Lys-D-Ala-D-Ala; assay: ITC, tri-peptide injected into dalbavancin, 25 °C, apparent value in the presence of 80.7 µM HSA

Chain of dog albumin (dog) (P49822 25-608 limits assumed): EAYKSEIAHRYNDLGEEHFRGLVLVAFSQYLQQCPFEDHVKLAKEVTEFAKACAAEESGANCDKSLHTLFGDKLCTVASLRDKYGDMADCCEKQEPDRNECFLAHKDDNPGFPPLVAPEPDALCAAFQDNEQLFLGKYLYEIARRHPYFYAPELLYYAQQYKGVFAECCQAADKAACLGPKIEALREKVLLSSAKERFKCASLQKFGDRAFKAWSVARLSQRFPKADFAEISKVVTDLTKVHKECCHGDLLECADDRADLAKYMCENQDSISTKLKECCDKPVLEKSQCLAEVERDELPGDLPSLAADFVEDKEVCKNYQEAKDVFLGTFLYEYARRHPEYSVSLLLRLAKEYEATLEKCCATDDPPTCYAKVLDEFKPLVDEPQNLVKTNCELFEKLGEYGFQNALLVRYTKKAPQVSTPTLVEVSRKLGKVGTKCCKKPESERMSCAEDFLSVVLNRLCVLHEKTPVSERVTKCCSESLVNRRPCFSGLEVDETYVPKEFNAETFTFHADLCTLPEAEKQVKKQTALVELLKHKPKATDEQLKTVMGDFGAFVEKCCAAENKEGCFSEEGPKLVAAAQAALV
Chain of bovine albumin (bovine) (P02769 25-607 limits assumed): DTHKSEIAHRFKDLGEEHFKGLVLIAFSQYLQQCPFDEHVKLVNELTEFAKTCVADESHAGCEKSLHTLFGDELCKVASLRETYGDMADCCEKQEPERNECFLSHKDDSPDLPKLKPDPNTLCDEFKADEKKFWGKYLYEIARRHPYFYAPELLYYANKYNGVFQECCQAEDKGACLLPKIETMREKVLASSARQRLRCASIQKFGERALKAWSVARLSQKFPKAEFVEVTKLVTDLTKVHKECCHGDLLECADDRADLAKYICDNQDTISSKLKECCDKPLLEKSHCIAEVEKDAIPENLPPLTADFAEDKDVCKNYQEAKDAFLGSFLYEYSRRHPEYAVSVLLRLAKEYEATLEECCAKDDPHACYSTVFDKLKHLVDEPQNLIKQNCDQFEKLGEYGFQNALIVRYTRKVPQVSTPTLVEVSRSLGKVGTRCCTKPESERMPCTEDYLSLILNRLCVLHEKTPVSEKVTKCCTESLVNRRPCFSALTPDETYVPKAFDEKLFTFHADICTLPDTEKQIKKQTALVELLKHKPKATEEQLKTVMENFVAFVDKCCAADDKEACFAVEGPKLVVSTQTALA

dalbavancin (peptide)
N [1]: 0.5
N (binding stoichiometry, protein per dalbavancin) [2]: < 1
N (binding stoichiometry, protein per dalbavancin) [3]: < 1
N (binding stoichiometry, protein per dalbavancin) [4]: < 1
N (binding stoichiometry, protein per dalbavancin) [5]: < 1
N [6]: 0.59 and 0.56
calculated percent binding [7]: 73%
calculated percent binding [8]: 68.2%
calculated percent binding [9]: 26.2%
calculated percent binding [10]: 16.9%
calculated percent binding [11]: 11.4%
calculated percent binding [12]: 5.9%
calculated percent binding [13]: 98.8%
calculated percent binding [14]: 98.8%
calculated percent binding [15]: 98.7%
calculated percent binding [16]: 98.6%
calculated percent binding [17]: 98.5%
calculated percent binding [18]: 98%
N [19]: 0.35 and 0.37
N [20]: 0.68
N [21]: 0.83

teicoplanin (peptide)
calculated percent binding [7]: 9.6%
calculated percent binding [8]: 9.1%
calculated percent binding [9]: 6%
calculated percent binding [13]: 98.3%
calculated percent binding [14]: 98.3%
calculated percent binding [15]: 98%
